# According to the supplement of paper PMC12042874:
# ± gives the uncertainty stated by the source.
# Assay: amyloid nucleation score (Sup35N fusion, yeast selection) (log enrichment); library NNK3; higher = more nucleation; inactive = no reads after selection
# Procedure, shortened: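 The nucleation score is the DiMSum log enrichment of output over input reads, centred on the mode score of non-aggregating sequences. Only sequences with 100 or more input reads were scored, using Illumina sequencing of input and output plasmid inserts. Psi-negative yeast expressing Sup35N fused to peptides of 20 random codons were induced 24 hours with 100 μM copper sulfate and grown 7 days at 30°C on medium lacking adenine and uracil.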
row,Substance,amyloid nucleation score
1,TTQILYTFY,1.56 ± 0.12
2,TTSEAIMLGCSISTYNQSGN,inactive
3,TTTAYWNESDTLRCMLV,-0.757 ± 1.4
4,TVCLVAITKAPRRCNSQHWD,-0.917 ± 1.9
5,TVCYYWRN,0.911 ± 0.2
6,TVERILC,inactive
7,TVEVFNHMRERHNYMS,inactive
8,TVFSDFSGSKEMTVTIRRWV,inactive
9,TVLGM,0.699 ± 0.17
10,TVLLLGRWYN,1.24 ± 0.14
11,TVLWFSC,inactive
12,TVLYLNDDIATYHRMLVFRV,inactive
13,TVMPLRMSSISGSAGTSA,inactive
14,TVQNVLCHCMMSNMAYWGHQ,2.63 ± 0.082
15,TVRKHLLLDHKWYVVNSEIT,inactive
16,TVRVYIHIYHIGFLGPMRSE,0.889 ± 0.22
17,TVSGLMVFVMHNGYS,1.45 ± 0.084
18,TVVIVPNWPVCRGHDFGERC,inactive
19,TWDWGCKVGFRKGKKV,inactive
20,TWNMFDGSVRHFSIWFSARS,inactive
21,TWQEVMNVQRTS,inactive
22,TWQVFSASVTVSLSYTSK,inactive
23,TWRNLILRFGCGGFSKTTFK,inactive
24,TWVTAGYCVNIYRTRSWMK,inactive
25,TWVWGKFFGFLNSDISDVRH,inactive
26,TWWFK,-0.234 ± 0.28
27,TWYVLSNDNSCVYTGPTCQ,inactive

row,Substance,amyloid nucleation score
1,TYFHIRCVV,inactive
2,TYFTFSTWLRMYSGYSLVQV,inactive
3,TYPRLNVHLLPLDFILYPH,inactive
4,TYSNMCVSDVLCLTLT,2.38 ± 0.048
5,TYYSLVF,inactive
6,VAADITSEA,inactive
7,VAAFVNRARNATFVLALYCY,inactive
8,VAFSFYFNSILVSVTRIVGS,0.773 ± 0.15
9,VAPLANHKASRDSYAYVSGS,inactive
10,VCEQYFGRCNLRNKFCIWTL,inactive
11,VCGIVIRGKVPKDKQYNMGE,inactive
12,VCHGRSNHA,inactive
13,VCLDHHGVGFYVRSSSCSS,inactive
14,VCLHDRLGVHVGQIRLGYRC,inactive
15,VCLLSS,inactive
16,VCMFEFMDKFWNFVVTAEQC,inactive
17,VCRGQRISACQSRSVCGCWH,inactive
18,VCSLVGKKRPHGSTSI,inactive
19,VCVRYLFLFFSLIFYSGT,inactive
20,VCWMSVRDNNNGHFLIYSSD,inactive
21,VCYLFWDVWVFLGEVTANT,inactive
22,VDFYAQ,inactive
23,VDGATFFISWKIMARDSYRY,inactive
24,VDGSVNMRALKCINNCVL,inactive
25,VDMRSDDLIMQFWQLLSDDV,inactive
26,VDRFRSQNKFVSNGMSLIRK,inactive
27,VDVDPVSSD,inactive

row,Substance,amyloid nucleation score
1,VEAHLLL,0.01 ± 0.87
2,VEGATWHTWSCVNHVVVKGF,inactive
3,VEVMSGDEMWCLWLEFPSFE,inactive
4,VEYNWSLFFNPRDFRGARDL,0.505 ± 0.27
5,VFEHVGWNPHVRYTVNR,inactive
6,VFFVQCNHWNGMVNVFAM,2.9 ± 0.057
7,VFFYSDHVLCVYFVSLYSFS,0.386 ± 0.42
8,VFGET,inactive
9,VFGMKSRDIRIS,inactive
10,VFGRLFIQMPKLTINQGKFH,1.83 ± 0.089
11,VFGRWCFLETCMMHFTFSRY,0.865 ± 0.22
12,VFHHIILRFN,inactive
13,VFISLVLSDLRSFARVVLGG,inactive
14,VFMCILDWRVNSHMCLKLFH,inactive
15,VFNWYEVVFTFWCNMTANGM,1.49 ± 0.069
16,VFSDGLFVMTAAVYQYT,inactive
17,VFSDTRCVCRKRSSVFKIVS,inactive
18,VFSFLYIRNV,1.55 ± 0.087
19,VFTFRWHVWRDWLMSEHCDK,-0.296 ± 0.55
20,VFYELAYFSNNQTDQWVLD,inactive
21,VFYMRSETKLFL,-0.391 ± 0.8
22,VGCRMPVACRTWRDKYALAR,inactive
23,VGFPPSSTSRCR,inactive
24,VGGGSFCFKHRLNGGTDGHV,1.11 ± 0.13
25,VGGLSSDPTADISFVVVFQD,0.089 ± 0.71
26,VGHERTVSLQHCGRRLRWCW,inactive
